Substrate in data set [1]: O=C(/C=C/c1ccc(O)cc1)c1c(O)cc(O)cc1O
In words: purified protein. It is filed as biochemical, Panicum virgatum.

Substrate in data set [2]: O=C(/C=C/c1ccc(O)cc1)c1c(O)cc(O)cc1O
As to the kind of experiment: steady-state kinetics (Km). It is filed as biochemical, Sorghum bicolor.

Substrate in data set [3]: O=C(/C=C/c1ccc(O)cc1)c1ccc(O)cc1O
As to the kind of experiment: steady-state kinetics (Km). It is filed as biochemical, Sorghum bicolor.

Substrate in data set [4]: CC(C)(COP(=O)(O)OP(=O)(O)OC[C@H]1O[C@@H](n2cnc3c(N)ncnc32)[C@H](O)[C@@H]1OP(=O)(O)O)[C@@H](O)C(=O)NCCC(=O)NCCSC(=O)/C=C/c1ccc(O)cc1
As to the kind of experiment: steady-state kinetics, LC-MS/MS (Km). It counts as biochemical, Panicum virgatum. The settings on record: malonyl-CoA (co-substrate).

3 proteins from publication PMC11172311, “Structural and Interactional Analysis of the Flavonoid Pathway Proteins: Chalcone Synthase, Chalcone Isomerase and Chalcone Isomerase-like Protein” (International Journal of Molecular Sciences, 2024) can be followed below.

B1: PvCHI (chalcone isomerase) (Panicum virgatum) (protein)
chain: MAAVSEVAVDGVVFPPVARPPGSGRSHFLAGAGVRGMEIGGNFIKFTAIGVYLEEGAAVSALAKKWAGKSADELAADAAFFRDVVTGDFEKFTRVTMILPLTGEQYSGKVTENCVAYWKAVGVYTDAEGAAVDKFKEAFKPETFPPGASILFTHSPAGVLTVAFSKDSSVPESGGVAIDNKPLCEAVLESIIGEHGVSPAAKLSVAARVSELLKEASPAGGAPQAAAEPAVPVSA
notes: recombinant, N-terminal 6×-His tag
With B1, in data set [1], the Km was 16.04 ± 6.28 µM, the kcat was 8010 ± 1180 s⁻¹ and the kcat/Km is 5e+08 M⁻¹ s⁻¹.

B2: SbCHI (chalcone isomerase, Bmr30) (Sorghum bicolor) (protein)
chain: MAVPEVVVEGVVFPPVARPPGSAGSHFLGGAGVRGIEIGGNFIKFTAIGVYLEDAAVSALAKKWAGKTADELASDAAFFRDVVTGDFEKFTRVTMLLPLTGEQYAGKVTENCVAFWKAVGLYTDAEGVAVEKFKEAFKPETFPPGASILFTHSSTGVLTVAFSKDSSVPASGGVAIENKHLCEAVLESIIGEHGVSPAAKLSLAARVSELLTKGTAGAADAPQAEPVSVTA
notes: recombinant SbCHI
For B2, in data set [2], the Km turned out to be 16.55 ± 2.08 µM, the catalytic constant (kcat) turned out to be 2890 ± 144 s⁻¹ and the kcat/Km was determined as 1.74e+08 M⁻¹ s⁻¹. Further, in data set [3], the Km is recorded as 1.585 ± 0.929 µM, the kcat turned out to be 0.239 ± 0.0274 s⁻¹ and the kcat/Km came out at 151000 M⁻¹ s⁻¹.

B3: PvCHS (chalcone synthase) (Panicum virgatum) (protein)
chain: MAGAAAAVTVEEVRKAQRASGPATVLAIGTATPANCVHQADYPDYYFRVTKSDHLTDLKEKFKRMCDKSMIRKRYMHLTEEFLAENPNMCAYMAPSLDARQDIVVVEVPKLGKAAAQKALKEWGQPRSRITHLVFCTTSGVDMPGADYQLTKLLGLRPSVNRLMMYQQGCFAGGTVLRVAKDLAENNRGARVLVVCSEITAVTFRGPSESHLDSLVGQALFGDGAAAVIVGADPDERAERPLFQLVSAAQTLLPDSEGAIDGHLREVGLTFHLLKDVPGLISKNIERALEAAFAPLGISDWNSIFWVAHPGGPAILDQVEAKVSLDKARMRATRHVLAEYGNMSSACVLFILDEMRKRSAEDGCATTGEGLDWGVLFGFGPGLTVETVVLHSVPITAGAAAA
notes: as for B1
As for B3, in data set [4], the Km was determined as 0.1303 ± 0.0319 µM, the kcat turned out to be 0.00695 ± 0.00077 s⁻¹ and the kcat/Km amounted to 53300 M⁻¹ s⁻¹.

As a reminder, the Km is the substrate concentration at which the rate is half of its maximum. A word on the kcat: it is the number of substrate molecules converted per active site and unit of time at saturation. One may read the kcat/Km as the turnover number divided by the Michaelis constant.
